Assay results taken from patent publication US20180244783A1, “COMBINATION THERAPY FOR TREATMENT OF DISEASE” (OncoMed Pharmaceuticals, Inc., priority 2015, published 2018).

B1: 18R5: anti-FZD IgG2 antibody binding FZD1, FZD2, FZD5, FZD7, FZD8; heavy chain SEQ ID NO:11, light chain SEQ ID NO:12 (antibody)
heavy: EVQLVESGGGLVQPGGSLRLSCAASGFTFSHYTLSWVRQAPGKGLEWVSVISGDGSYTYYADSVKGRFTISSDNSKNTLYLQMNSLRAEDTAVYYCARNFIKYVFANWGQGTLVTVSSASTKGPSVFPLAPCSRSTSESTAALGCLVKDYFPEPVTVSWNSGALTSGVHTFPAVLQSSGLYSLSSVVTVPSSNFGTQTYTCNVDHKPSNTKVDKTVERKCCVECPPCPAPPVAGPSVFLFPPKPKDTLMISRTPEVTCVVVDVSHEDPEVQFNWYVDGVEVHNAKTKPREEQFNSTFRVVSVLTVVHQDWLNGKEYKCKVSNKGLPAPIEKTISKTKGQPREPQVYTLPPSREEMTKNQVSLTCLVKGFYPSDIAVEWESNGQPENNYKTTPPMLDSDGSFFLYSKLTVDKSRWQQGNVFSCSVMHEALHNHYTQKSLSLSPGK
light: DIELTQPPSVSVAPGQTARISCSGDNIGSFYVHWYQQKPGQAPVLVIYDKSNRPSGIPERFSGSNSGNTATLTISGTQAEDEADYYCQSYANTLSLVFGGGTKLTVLGQPKAAPSVTLFPPSSEELQANKATLVCLISDFYPGAVTVAWKADSSPVKAGVETTTPSKQSNNKYAASSYLSLTPEQWKSHRSYSCQVTHEGSTVEKTVAPTECS
modifications: Heavy chain amino acid sequence without predicted signal sequence; Light chain amino acid sequence without predicted signal sequence

Columns and labels:
B16F10 melanoma = B16F10 melanoma tumor growth in mice; format: in vivo; details: B16F10 melanoma in C57b16/J mice; vs control antibody (Hamster IgG); 18R5 45 mg/kg Q2W, 54F28 50 mg/kg Q2W, anti-CTLA-4 (4F10-11) 10 mg/kg 3QW; n=10
Procedure: B16F10 melanoma cells were implanted into the rear flanks of C57b16/J mice. When tumors reached a mean tumor volume of ˜100 mm^3 as measured by electronic caliper, mice were grouped and treated with a control antibody (Hamster IgG, 10 mg/kg, 3QW), 18R5 (45 mg/kg, Q2W), anti-CTLA-4 (4F10-11, 10 mg/kg, 3QW), 54F28 (50 mg/kg, Q2W), or a combination of 18R5+ anti-CTLA-4 or 54F28+ anti-CTLA-4. […] Data shown represents the mean ±SEM (n=10).

B16F10 target cells = experiment: T cell cytotoxicity, calcein release from B16F10 target cells; format: in vivo, mouse; details: splenocytes of treated B16F10 tumor-bearing mice, cultured 6 days with mgp100 peptide; effector:target 25:1; vs Hamster IgG; FIG. 2B
Procedure: To measure changes in T cell toxicity, the mouse melanoma cell line B16F10 was cultured in DMEM culture medium supplemented with 10% (v/v) fetal bovine serum (FBS), 2 mM L-glutamine, and 100 U/mL penicillin at 37° C. in a humidified atmosphere of 5% CO2. Total splenocytes from were cultured for 6 days in RPMI 1640 medium supplemented with 10% FBS, 2 mM L-glutamine, 100 U/mL penicillin, and 1 μg/mL mgp100 peptide (Anaspec). B16F10 target cells were labeled with 10 μM calcein AM (Life Technologies) for 1 hour at 37° C. and then combined with the splenocytes at an effector:target ratio of 25:1. Following a four-hour incubation at 37° C., cell-free supernatants were harvested and calcein release was quantified on a fluorometer at an excitation of 485 nm and an emission of 535 nm. The percentage of specific cell lysis was determined as: % lysis=100×(ER-SR)/(MR-SR), where ER, SR, and MR represent experimental, spontaneous, and maximum calcein release, respectively. Spontaneous release is the fluorescence emitted by target cells incubated in media alone (i.e., in the absence of effector cells), while maximum release is determined by lysing target cells with an equal volume of 10% SDS. For all groups, p<0.05 vs. Hamster IgG.

B16F1 tumors = experiment: T-cell tumor infiltration by flow cytometry (FACS); format: in vivo, mice; details: compared to anti-CTLA-4 + anti-PD-L1 without 18R5 (or control antibodies)
Procedure: The change is T-cell tumor infiltration was also measured. Here, B16F1 tumors were isolated from control antibody, anti-CTLA-4 and anti-mouse PD-L1 combination; and anti-mouse Fzd7 (18R5)+anti-mouse anti-CTLA-4+ anti-mouse PD-L1 combination antibody-treated mice. Single cell suspensions were acquired from 4-6 independently treated tumors and were stained for tumor infiltrating immune cells using fluorescently-labeled anti-CD45, anti-CD4, and anti-CD8 antibodies. Flow cytometry analysis (FACS) was performed and the relative percentage populations of CD45+/CD4+ and CD45+/CD8+ T cells are shown.

splenocytes = experiment: ELISpot cytokine secretion assay of splenocytes (hgp100 peptide); format: in vivo, mice; details: splenocytes with 1 μg/ml hgp100 peptide, 18R5 added to anti-CTLA-4 + anti-PD-L1 therapy
Procedure: Using the ELISpot cytokine secretion assay, secretion of IFN-gamma and IL-2 was measured following 18R5 treatment. In these assays, splenocytes were harvested from a minimum of four mice per group, filtered, and the red blood cells lysed and re-suspended in RPMI+10% FBS+penn/strep at a concentration of 10^6 cells/ml in the presence of 1 μg/ml hgp100 peptide. Cells were plated on pre-coated ELISpot plates, incubated overnight and processed according to manufacturer's instructions (MabTech, Cincinnati, Ohio). Developed plates were read on a BioSys BioReader 6000-F b. The results from this assay are shown in FIG. 4A (IFN-gamma) and FIG. 4B (IL-2). Values shown are total optical density. As shown in these figures, IFN-gamma and IL-2 were increased by addition of 18R5 therapy.

B16F1 melanoma cells = experiment: B16F1 melanoma tumor growth with GVAX, anti-CTLA-4 and anti-PD-L1; format: in vivo; details: C57BL6J mice, murine chimera 18R5 added to anti-CTLA-4 (9D9) + anti-PD-L1 (10F.9G2), compared to these antibodies without 18R5, FIGS. 3A-3D
Procedure: The effect of the anti-Fzd antibody, OMP-18R5, on melanoma cell line tumor growth was tested animals receiving the combination of anti-CTLA-4 and anti-PD-L1 antibodies. In these experiments, ten thousand B16F1 melanoma cells were injected subcutaneously into C57BL6J mice. On days 4, 7, and 10 post-implantation, “GVAX” tumor vaccine was administered by the injection of 2 million mitomycin C-treated cells of a B16F1 subclone stably transfected with a plasmid encoding m-GM-CSF (with GM-CSF expression confirmed by ELISA), as previously described by Curran and Allison, Cancer Res 69:7747, 2009. Anti-CTLA-4 clone 9D9 (BioXCell; West Lebanon, N.H.) was dosed on days 5, 8, and 12. Anti-PD-L1 clone 10F.9G2 (BioXCell) was dosed on days 5, 8, 12, 14, 19, 22, and 26, and either 1B7.11 isotype or murine chimera 18R5 were administered days 5, 12, 19, and 26 following parental B16F1 cell implantation.

Molecule | anti-tumor growth vs control (B16F10 melanoma) | T cell cytotoxicity (specific cell lysis) (B16F10 target cells) | CD4+ T cell tumor infiltration (CD45+/CD4+) (B16F1 tumors; FIG. 6A) | CD8+ T cell tumor infiltration (CD45+/CD8+) (B16F1 tumors; FIG. 6B) | IFN-gamma secretion (ELISpot, total optical density) (splenocytes; FIG. 4A) | IL-2 secretion (ELISpot, total optical density) (splenocytes; FIG. 4B) | tumor growth (B16F1 melanoma cells)
54F28: FZD8-Fc soluble receptor, SEQ ID NO:41 (SEQ ID NO:45 with signal sequence) | significant anti-tumor growth | increased | – | – | – | – | –
B1 | – | increased | increased | increased | increased | increased | decreased
